Where a chain is given by its changes, count along the chain named. Numbers in names are those of the source.
B1: WT Irga6, recombinant (enzyme, mouse, UniProt Q9QZ85 1-413, looked up)
chain: MGQLFSSPKSDENNDLPSSFTGYFKKFNTGRKIISQEILNLIELRMRKGNIQLTNSAISDALKEIDSSVLNVAVTGETGSGKSSFINTLRGIGNEEEGAAKTGVVEVTMERHPYKHPNIPNVVFWDLPGIGSTNFPPNTYLEKMKFYEYDFFIIISATRFKKNDIDIAKAISMMKKEFYFVRTKVDSDITNEADGKPQTFDKEKVLQDIRLNCVNTFRENGIAEPPIFLLSNKNVCHYDFPVLMDKLISDLPIYKRHNFMVSLPNITDSVIEKKRQFLKQRIWLEGFAADLVNIIPSLTFLLDSDLETLKKSMKFYRTVFGVDETSLQRLARDWEIEVDQVEAMIKSPAVFKPTDEETIQERLSRYIQEFCLANGYLLPKNSFLKEIFYLKYYFLDMVTEDAKTLLKEICLRN
B2: Irga6-K82A, recombinant (enzyme, mouse, UniProt Q9QZ85 1-413, looked up)
chain: B1 chain with K82A

Biological target: the molecule itself
Assay: conventional and dynamic light scattering

Protein | binding result
B1 | binds
B2 | binds
